Measurements from patent US8697369B2, “Method for screening a test substance for activating a receptor associated with FGF 21 activity” (National Institute of Advanced Industrial Science and …, priority 2007, dated 2014).

Columns and labels:
[1] = molecular target: T1, FGFR2c/betaKlotho-expressing BaF3 cells (Mus musculus, UniProt P21803+Q99N32); assay: DNA synthesis (thymidine incorporation) in FGFR2c/betaKlotho-expressing BaF3 cells; assay type: cell-based; conditions: BaF3 cells expressing FGFR2c and betaKlotho; presence of heparin
T1 construct: the entire-length cDNA of mouse betaKlotho was cloned into an animal cell expression vector; expressed in transfected cells; host or cells: BaF3 (mouse pro-B) cells
T1 sequence (P21803 22-821): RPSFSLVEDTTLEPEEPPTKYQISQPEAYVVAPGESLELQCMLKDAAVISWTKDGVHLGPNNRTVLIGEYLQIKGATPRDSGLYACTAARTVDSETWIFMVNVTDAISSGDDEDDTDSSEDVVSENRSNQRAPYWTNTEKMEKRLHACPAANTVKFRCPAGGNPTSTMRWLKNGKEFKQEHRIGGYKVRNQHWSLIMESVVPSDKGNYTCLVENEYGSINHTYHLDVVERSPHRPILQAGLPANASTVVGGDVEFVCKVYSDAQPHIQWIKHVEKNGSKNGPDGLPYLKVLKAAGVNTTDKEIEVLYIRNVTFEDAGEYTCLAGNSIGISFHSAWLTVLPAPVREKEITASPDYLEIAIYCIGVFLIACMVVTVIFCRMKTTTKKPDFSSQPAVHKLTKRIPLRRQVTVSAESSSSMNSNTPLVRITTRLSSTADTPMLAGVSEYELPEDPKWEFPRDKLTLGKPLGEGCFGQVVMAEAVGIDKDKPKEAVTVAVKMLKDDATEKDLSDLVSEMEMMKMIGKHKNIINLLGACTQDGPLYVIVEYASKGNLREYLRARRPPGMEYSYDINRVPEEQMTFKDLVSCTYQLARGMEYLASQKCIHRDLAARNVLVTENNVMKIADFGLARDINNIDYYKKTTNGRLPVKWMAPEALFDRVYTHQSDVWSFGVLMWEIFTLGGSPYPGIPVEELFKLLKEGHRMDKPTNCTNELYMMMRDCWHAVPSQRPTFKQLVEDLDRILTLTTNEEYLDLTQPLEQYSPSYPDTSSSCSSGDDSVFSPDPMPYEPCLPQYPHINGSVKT
T1 sequence (Q99N32 whole entry): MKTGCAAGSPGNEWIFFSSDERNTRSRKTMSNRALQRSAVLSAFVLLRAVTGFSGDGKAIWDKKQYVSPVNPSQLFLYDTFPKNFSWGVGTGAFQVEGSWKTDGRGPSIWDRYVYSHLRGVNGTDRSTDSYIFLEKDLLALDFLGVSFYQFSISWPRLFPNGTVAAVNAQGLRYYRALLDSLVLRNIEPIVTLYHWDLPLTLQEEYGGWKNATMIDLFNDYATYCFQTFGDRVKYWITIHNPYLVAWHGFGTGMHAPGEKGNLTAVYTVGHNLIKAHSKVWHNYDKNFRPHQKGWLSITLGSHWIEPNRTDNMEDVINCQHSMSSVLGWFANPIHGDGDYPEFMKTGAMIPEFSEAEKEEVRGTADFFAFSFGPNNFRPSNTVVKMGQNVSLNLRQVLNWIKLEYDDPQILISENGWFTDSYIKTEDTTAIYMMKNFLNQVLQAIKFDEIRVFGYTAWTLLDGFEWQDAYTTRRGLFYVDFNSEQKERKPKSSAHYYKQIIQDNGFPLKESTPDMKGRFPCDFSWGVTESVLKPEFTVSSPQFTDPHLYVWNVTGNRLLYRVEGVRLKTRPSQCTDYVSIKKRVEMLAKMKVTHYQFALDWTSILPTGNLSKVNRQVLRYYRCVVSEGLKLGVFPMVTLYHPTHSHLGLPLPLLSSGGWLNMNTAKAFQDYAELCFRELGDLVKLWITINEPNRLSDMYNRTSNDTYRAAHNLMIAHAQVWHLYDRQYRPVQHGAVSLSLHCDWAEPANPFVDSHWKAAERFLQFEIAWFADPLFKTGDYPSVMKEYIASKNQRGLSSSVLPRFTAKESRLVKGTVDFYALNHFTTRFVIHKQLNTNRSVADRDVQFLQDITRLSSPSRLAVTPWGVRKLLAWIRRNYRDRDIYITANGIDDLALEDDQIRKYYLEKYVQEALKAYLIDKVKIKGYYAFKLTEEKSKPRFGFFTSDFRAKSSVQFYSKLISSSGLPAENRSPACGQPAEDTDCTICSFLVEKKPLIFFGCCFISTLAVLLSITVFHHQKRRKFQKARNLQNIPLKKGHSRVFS
Method: A commonly used measurement method is a cell growth stimulating activity measurement method described in Ornitz, D. M., Xu, J., Colvin, J. S., McEwen, D. G., MacArthur, C. A., Coulier, F., Gao, G. and Goldfarb, M. (1996) Receptor specificity of the fibroblast growth factor family. J Biol Chem, 271, 15292-15297. The summary thereof is as follows. FGF used as a measurement target is added to a culture solution containing a cultured cell having an FGF receptor on the surface thereof, and the obtained mixture is cultured for a certain period of time. Thereafter, a labeled thymidine is added to the culture solution, followed by further culture for a certain period of time. By measuring the amount of the labeled thymidine incorporated into polymeric DNA during the culture, the degree of FGF to activate DNA synthesis is evaluated. (In the present invention as well, this method was adopted when the activity of FGF21 was measured in Examples 4, 5, 6, 8, 9, and 10.)
(§1) Whether other receptor molecules can also act as such FGF receptors was examined. An expression vector containing each FGFR (FGFR1b, R1c, R2b, R2c, R3b, R3c, and R4) (described in Ornitz, D. M., Xu, J., Colvin, J. S., McEwen, D. G., MacArthur, C. A., Coulier, F., Gao, G. and Goldfarb, M. (1996) Receptor specificity of the fibroblast growth factor family. J Biol Chem, 271, 15292-15297.) was introduced into betaKlotho-expressing BaF3 cells, so as to obtain clones that were resistant to Puromycin and G418, thereby obtaining FGFR/betaKlotho-expressing cells. Such cells were stimulated with FGF21, and the amount of DNA synthesized was measured.
The activity of FGF21 to stimulate the DNA synthesis of BaF3 cells that had expressed each FGFR (FGFR1c, R2c, F3c, and R4) as well as betaKlotho was compared with the activity of FGF19, which was evolutionally relative to FGF21. […] The cells were stimulated with FGF21, FGF19, and FGF1 in the presence of heparin, while changing the amounts of FGF21, FGF19, and FGF1, as shown in the figure, and the amount of DNA synthesized was then measured.

[2] = molecular target: T2, humanized FGFR3c/humanized betaKlotho (hβKlotho)-expressing cells (Homo sapiens, UniProt P22607+Q86Z14, A441S/A461E/A470D/A499P/A500N/A559S/A717S/A734V/A765M/C582S/D512S/D516E/D576E/D580N/D722E/D758Q/D785E/DEL405-414/E426D/E447G/E729D/E768D/F566Y/F579Y/F591S/F767L/G446S/G448T/G548D/G773S/G774F/H721N/I440P/I494L/I698V/I726M/INS417HSQMAVHKLAKSI/INS423TV/INS780T/K420R/K464R/K501R/K583H/L398M/L425A/L457Y/L554I/L645I/L752V/M488L/N428S/N434G/N453G/N644H/P401G/P402T/P436L/P502V/P584N/P778R/Q611K/Q775P/R397K/R399K/R416D/R498K/R568Q/S432N/S468P/S578C/S781C/T435V/T450M/T473V/T504K/T581P/T590S/T753A/T757N/V503T/V523I/V642I/V670I/V751I/V754L); assay: DNA synthesis in humanized FGFR3c/humanized betaKlotho-expressing BaF3 cells; assay type: cell-based; conditions: humanized FGFR3c and humanized betaKlotho; 10 μg/ml heparin
T2 construct: expressed in transfected cells; host or cells: BaF3 (mouse pro-B) cells
T2 sequence (P22607 other isoform, or with tags, fused parts or gaps with the stated changes): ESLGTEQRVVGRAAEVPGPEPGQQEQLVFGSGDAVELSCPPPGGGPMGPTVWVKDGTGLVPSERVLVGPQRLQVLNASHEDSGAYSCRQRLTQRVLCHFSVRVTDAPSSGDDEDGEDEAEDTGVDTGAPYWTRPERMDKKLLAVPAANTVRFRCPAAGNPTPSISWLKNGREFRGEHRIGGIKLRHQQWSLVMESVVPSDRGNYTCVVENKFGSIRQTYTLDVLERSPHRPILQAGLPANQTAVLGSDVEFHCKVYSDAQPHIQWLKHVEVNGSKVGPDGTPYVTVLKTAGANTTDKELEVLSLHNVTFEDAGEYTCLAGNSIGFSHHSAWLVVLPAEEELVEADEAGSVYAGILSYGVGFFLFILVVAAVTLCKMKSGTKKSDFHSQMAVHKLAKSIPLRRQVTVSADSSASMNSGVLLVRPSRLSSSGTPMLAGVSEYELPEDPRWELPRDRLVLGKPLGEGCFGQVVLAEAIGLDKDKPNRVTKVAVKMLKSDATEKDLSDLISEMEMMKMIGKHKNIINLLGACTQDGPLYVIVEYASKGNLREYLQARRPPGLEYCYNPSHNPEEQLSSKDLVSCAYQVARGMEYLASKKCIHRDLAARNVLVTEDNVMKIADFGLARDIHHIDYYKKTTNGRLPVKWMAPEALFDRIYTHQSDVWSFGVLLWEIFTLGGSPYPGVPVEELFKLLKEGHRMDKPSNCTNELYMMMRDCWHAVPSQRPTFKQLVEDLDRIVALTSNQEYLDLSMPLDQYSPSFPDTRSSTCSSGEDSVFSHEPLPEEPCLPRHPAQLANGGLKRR
T2 sequence (Q86Z14 whole entry, stated change not applied): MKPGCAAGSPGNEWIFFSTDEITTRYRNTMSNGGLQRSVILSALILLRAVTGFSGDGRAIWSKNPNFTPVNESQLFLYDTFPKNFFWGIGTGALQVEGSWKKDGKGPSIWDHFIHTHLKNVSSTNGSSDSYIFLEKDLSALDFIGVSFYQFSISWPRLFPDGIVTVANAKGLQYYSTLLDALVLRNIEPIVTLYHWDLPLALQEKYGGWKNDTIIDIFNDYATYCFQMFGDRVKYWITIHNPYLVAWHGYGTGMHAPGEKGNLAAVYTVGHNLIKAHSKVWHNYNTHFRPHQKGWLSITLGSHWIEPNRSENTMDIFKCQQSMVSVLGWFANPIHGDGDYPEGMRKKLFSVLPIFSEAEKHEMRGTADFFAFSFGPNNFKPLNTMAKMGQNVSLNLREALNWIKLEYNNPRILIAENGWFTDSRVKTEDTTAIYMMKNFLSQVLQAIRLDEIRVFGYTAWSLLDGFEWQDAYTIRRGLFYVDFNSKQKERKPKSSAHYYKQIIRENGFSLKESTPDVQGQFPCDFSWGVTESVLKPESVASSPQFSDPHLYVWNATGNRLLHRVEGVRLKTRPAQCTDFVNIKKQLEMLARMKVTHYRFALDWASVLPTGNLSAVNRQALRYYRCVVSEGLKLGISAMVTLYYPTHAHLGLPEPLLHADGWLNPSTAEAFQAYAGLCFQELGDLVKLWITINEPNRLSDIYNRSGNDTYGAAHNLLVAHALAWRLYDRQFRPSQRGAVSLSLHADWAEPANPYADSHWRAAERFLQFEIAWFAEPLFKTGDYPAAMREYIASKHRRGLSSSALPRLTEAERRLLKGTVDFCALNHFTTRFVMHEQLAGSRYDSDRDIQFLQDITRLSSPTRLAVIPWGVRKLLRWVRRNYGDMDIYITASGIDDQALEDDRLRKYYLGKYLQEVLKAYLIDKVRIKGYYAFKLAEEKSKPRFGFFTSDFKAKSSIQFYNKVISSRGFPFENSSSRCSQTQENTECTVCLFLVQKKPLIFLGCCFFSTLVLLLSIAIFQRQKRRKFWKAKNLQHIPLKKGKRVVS
Method: The homology between human FGFR3 and mouse FGFR3 at the amino acid sequence level is 93%. […] The cDNA of humanized FGFR3c was prepared from a commercially available human RNA sample (Takara Bio Inc.) by PCR. The sequence of its intracellular portion was substituted with the sequence of humanized FGFR1, and it was then introduced into an expression vector having an SRalpha promoter (pSRalpha). The FGFR3c expression vector was introduced into BaF3 cells by an electroporation method, so as to obtain FGFR3c-expressing BaF3 cells as G418-resistant clones. In the case of FGFR3c/betaKlotho-co-expressing cells, a betaKlotho expression vector was introduced into the FGFR3c-expressing BaF3 cells, so as to obtain the aforementioned cells as Puromycin-resistant clones. In the presence of heparin, humanized FGF21 was added in various types of concentrations to FGFR3c-expressing cells or FGFR3c/betaKlotho-co-expressing cells, and the amount of DNA synthesized was then measured.

[3] = system: betaKlotho/FGFR-expressing cells (FGFR1b, R1c, R2b, R2c, R3b, R3c, R4); assay: Thymidine incorporation in betaKlotho/FGFR-expressing BaF3 cells with or without heparin; assay type: cell-based, mouse; conditions: presence versus absence of heparin
Method: An expression vector of such FGF receptor (FGFR1b, R1c, R2b, F2c, R3b, R3c, and R4) was introduced into BaF3 cells expressing betaKlotho, and each type of betaKlotho/FGFR-expressing cells were stimulated with FGF21 and FGF1 in the presence or absence of heparin, so that the ability of the cells to incorporate thymidine therein was measured. As a result, it was shown that both FGFR1c- and FGFR3c-expressing cells react with FGF21.
as §1

[4] = system: control 3T3-L1 fibroblasts; assay: GLUT1 mRNA level in control 3T3-L1 fibroblasts (empty vector); assay type: cell-based; conditions: various concentrations, 6 hours
Method: A betaKlotho expression vector or an empty vector used as a control, into which betaKlotho cDNA had not been inserted, were introduced into 3T3-L1 fibroblasts, and FGF21 was then added in various types of concentrations to a culture solution of the 3T3-L1 fibroblasts. The obtained mixture was cultured for 6 hours. Thereafter, RNA was extracted, and the mRNA level of GLUT1 was then measured.

Molecule	DNA synthesis (thymidine incorporated into the cells) [1]	amount of DNA synthesized (thymidine incorporation) [2]	influence of heparin on stimulus transmission activity (thymidine incorporation) [3]	mRNA level of GLUT1 [4]
FGF1: conventional FGF used as a control	reacts with all of the receptors	promoted the DNA synthesis	sharply increased in the presence of heparin	
FGF21: fibroblast growth factor 21; mouse-derived protein used in Examples 1-7 and 10-13 (protein) AYPIPDSSPLLQFGGQVRQRYLYTDDDQDTEAHLEIREDGTVVGAAHRSPESLLELKALKPGVIQILGVKASRFLCQQPDGALYGSPHFDPEACSFRELLLEDGYNVYQSEAHGLPLRLPQKDSPNQDATSWGPVRFLPMPGLLHEPQDQAGFLPPEPPDVGSSDPLSMVEPLQGRSPSYAS	slightly react with FGFR2c		does not significantly influence	not observed
